Source: patent US20140093496A1 (Chugai, published 2014)
Numbering of substitutions follows the chain as printed. Numbers in names are those of the source. One block for each binder: values may come before it.

Legend:
[1] = biological target: T1, FcγRIIa type R extracellular domain, C-terminal His tag (human, UniProt P12318 34-217); experiment: SPR (Biacore), antibody captured, FcγR as analyte
T1 construct: extracellular domain; also called FcgRIIaR; FcγRIIaR; not shown: His tag at the C terminus
T1 sequence (looked up): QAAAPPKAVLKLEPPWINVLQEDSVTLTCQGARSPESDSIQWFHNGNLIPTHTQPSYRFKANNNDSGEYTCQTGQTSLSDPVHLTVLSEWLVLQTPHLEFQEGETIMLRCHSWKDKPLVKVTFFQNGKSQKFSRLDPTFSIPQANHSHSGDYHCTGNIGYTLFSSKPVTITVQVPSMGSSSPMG
Source text: (§1) Furthermore, KD(IIaR)/KD(IIb) and KD(IIaH)/KD(IIb) in the table respectively represent the value obtained by dividing the KD value of each variant for FcγRIIaR by the KD value of each variant for FcγRIIb, and the value obtained by dividing the KD value of each variant for FcγRIIaH by the KD value of each variant for FcγRIIb. KD(IIb) of the parent polypeptide/KD(IIb) of the altered polypeptide refers to the value obtained by dividing the KD value of the parent polypeptide for FcγRIIb by the KD value of each variant for FcγRIIb.
(§2) Kinetic analyses for calculating the KD values of each altered antibody for FcγR were performed according to the following method. First, antibodies of interest were captured onto the above-mentioned sensor chips, and an Fcγ receptor diluted with the running buffer was allowed to interact. The Biacore Evaluation Software was used to globally fit the measured results to the obtained sensorgram using the 1:1 Langmuir binding model, and the association rate constant ka (L/mol/s) and the dissociation rate constant kd (1/s) were calculated; and from those values the dissociation constants KD (mol/L) were calculated.

[2] = biological target: T2, FcγRIIb extracellular domain, C-terminal His tag (human, UniProt P31994 43-217); experiment: SPR (Biacore), antibody captured, FcγR as analyte
T2 construct: extracellular domain; also called FcgRIIb; CD32B; not shown: His tag at the C terminus
T2 sequence (looked up): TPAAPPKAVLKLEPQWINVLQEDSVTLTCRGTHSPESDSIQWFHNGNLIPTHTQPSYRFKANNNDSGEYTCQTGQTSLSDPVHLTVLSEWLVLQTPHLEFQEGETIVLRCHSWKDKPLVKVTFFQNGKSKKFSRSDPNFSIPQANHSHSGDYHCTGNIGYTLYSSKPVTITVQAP
Source text: as §1, §2

[3] = biological target: T3, FcγRIIIa type V extracellular domain with C-terminal His tag (human, UniProt P08637 17-208); experiment: SPR (Biacore), antibody captured, FcγR analyte
T3 construct: extracellular domain; also called FcγRIIIaV; FcgRIIIaV; not shown: His tag at the C terminus
Source text: as §1, with “respectively show” for “respectively represent”, “to a” for “to the”
as §2
T3 sequence (P08637 17-208 F176V): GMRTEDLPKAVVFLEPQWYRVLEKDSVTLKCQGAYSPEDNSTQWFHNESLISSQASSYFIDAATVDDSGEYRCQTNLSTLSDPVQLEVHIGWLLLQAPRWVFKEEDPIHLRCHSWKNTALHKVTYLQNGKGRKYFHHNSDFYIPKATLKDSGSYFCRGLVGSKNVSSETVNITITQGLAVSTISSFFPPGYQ

[4] = biological target: T4, FcγRIIa type R extracellular domain with C-terminal His tag (human, UniProt P12318 34-217); experiment: SPR (Biacore), antibody captured, FcγR analyte
T4 chain: T1 sequence (looked up)
Source text: as §1, with “respectively show” for “respectively represent”, “to a” for “to the”
as §2

[5] = biological target: T5, FcγRIIa type R extracellular domain with C-terminal His tag (human, UniProt P12318 34-217); experiment: SPR (Biacore)
T5 construct: extracellular domain; also called FcgRIIaR; FcγRIIaR
T5 sequence (looked up): T1 sequence (looked up)
Source text: (§3) IL6R-L was utilized as the common antibody L chain for all of the antibodies, the antibodies were expressed and purified according to the method of Reference Example 1, and binding to each of the FcγRs (FcγRIa, FcγRIIa H type, FcγRIIa R type, FcγRIIb, and FcγRIIIa V type) was comprehensively evaluated by the method of Reference Example 2.
as §1

[6] = biological target: T6, FcγRIIIa type V extracellular domain with C-terminal His tag (human, UniProt P08637 17-208); experiment: SPR (Biacore)
T6 construct: extracellular domain; also called FcgRIIIaV; FcγRIIIaV
Source text: as §3, §1
T6 sequence (P08637 17-208 F176V): as above

[7] = biological target: T7, FcγRIIb extracellular domain with C-terminal His tag (human, UniProt P31994 43-217); experiment: SPR (Biacore): antibody captured on the chip, FcγRIIb as analyte; amount bound per amount captured, relative to GpH7-B3/GpL16-k0 = 100
T7 construct: extracellular domain; also called FcgRIIb; FcγRIIb extracellular region; not shown: His tag at the C terminus
T7 sequence (looked up): T2 sequence (looked up)

B1: IL6R-BP117/IL6R-L (antibody, human IgG1, kappa)
heavy: QVQLQESGPGLVKPSETLSLTCAVSGHSISHDHAWSWVRQPPGEGLEWIGFISYSGITNYNPSLQGRVTISRDNSKNTLYLQMNSLRAEDTAVYYCARSLARTTAMDYWGEGTLVTVSSASTKGPSVFPLAPSSKSTSGGTAALGCLVKDYFPEPVTVSWNSGALTSGVHTFPAVLQSSGLYSLSSVVTVPSSSLGTQTYICNVNHKPSNTKVDKKVEPKSCDKTHTCPPCPAPELLGGDSVFLFPPKPKDTLMISRTPEVTCVVVDVSHEDPEVKFNWYVDGVEVHNAKTKPREEQYNSTYRVVSVLTVLHQDWLNGKEYKCKVSNDALPAPIEKTISKAKGQPREPQVYTLPPSRDELTKNQVSLTCLVKGFYPSDIAVEWESNGQPENNYKTTPPVLDSDGSFFLYSKLTVDKSRWQQGNVFSCSVMHEALHNHYTQESLSLSP
light: not shown
notes: IgG1; P238D/K326D (EU numbering) introduced into IL6R-B3
Kd [1]: 9.2 µM | Kd [2]: 0.8 µM

B2: IL6R-PD094/IL6R-L (antibody, human IgG1, kappa)
heavy: B1 heavy with G239W, M254Y, D328K, N436Y, E441K
light: not shown
notes: IL6R-F11 with P238D/G237W; copies: 2 + 2
Kd [3]: 38 µM | Kd [4]: 7.2 µM

B3: IL6R-PD097/IL6R-L (antibody, human IgG1, kappa)
heavy: B1 heavy with S241D, M254Y, D328K, N436Y, E441K
light: not shown
notes: IL6R-F11 with P238D/S239D; copies: 2 + 2
Kd [3]: 17 µM | Kd [4]: 3.5 µM

B4: IL6R-BP085/IL6R-L (antibody, human IgG1, kappa)
heavy: B1 heavy with G239D, D328K, A332K
light: not shown
notes: G237D/P238D/A330K (EU) in IL6R-B3; copies: 2 + 2
Kd [5]: 4.2 µM | Kd [6]: 68 µM

B5: IL6R-2B253/IL6R-L (antibody, human IgG1, kappa)
heavy: B1 heavy with E235D, V325M, D328K
light: not shown
notes: E233D/P238D/V323M (EU) in IL6R-B3; copies: 2 + 2
Kd [5]: 5 µM | Kd [6]: 50 µM

B6: IL6R-BP136/IL6R-L (antibody, human IgG1, kappa)
heavy: B1 heavy with D328A
light: not shown
notes: IgG1; P238D/K326A (EU numbering) introduced into IL6R-B3
Kd [2]: 0.8 µM

B7: G237A (antibody, human IgG1, kappa)
heavy chain: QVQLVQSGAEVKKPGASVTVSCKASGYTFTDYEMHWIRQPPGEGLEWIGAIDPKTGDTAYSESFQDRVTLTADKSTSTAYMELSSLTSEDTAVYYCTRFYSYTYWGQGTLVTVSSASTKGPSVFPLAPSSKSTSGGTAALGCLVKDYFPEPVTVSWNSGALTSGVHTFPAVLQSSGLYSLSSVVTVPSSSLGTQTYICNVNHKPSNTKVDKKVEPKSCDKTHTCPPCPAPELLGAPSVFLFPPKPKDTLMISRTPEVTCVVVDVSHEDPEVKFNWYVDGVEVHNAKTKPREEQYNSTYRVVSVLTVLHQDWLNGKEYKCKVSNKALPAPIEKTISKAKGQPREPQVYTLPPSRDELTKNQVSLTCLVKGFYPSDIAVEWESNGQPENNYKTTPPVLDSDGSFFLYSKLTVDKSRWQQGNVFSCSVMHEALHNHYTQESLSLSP
light chain: DIVMTQSPLSLPVTPGEPASISCQASESLVHSNRNTYLHWYLQKPGQSPQLLIYKVSNRFSGVPDRFSGSGSGTDFTLKISRVEAEDVGVYYCSQNTHVPPTFGQGTKVEIERTVAAPSVFIFPPSDEQLKSGTASVVCLLNNFYPREAKVQWKVDNALQSGNSQESVTEQDSKDSTYSLSSTLTLSKADYEKHKVYACEVTHQGLSSPVTKSFNRGEC
notes: Named on the sheet only by its alteration; also called B3 variant of GpH7-B3/GpL16-k0 with G237A (no P238D)
binding result [7]: binds

Continued, values first:

binding result [7]: binds
B8: G237D (antibody, human IgG1, kappa)
heavy chain: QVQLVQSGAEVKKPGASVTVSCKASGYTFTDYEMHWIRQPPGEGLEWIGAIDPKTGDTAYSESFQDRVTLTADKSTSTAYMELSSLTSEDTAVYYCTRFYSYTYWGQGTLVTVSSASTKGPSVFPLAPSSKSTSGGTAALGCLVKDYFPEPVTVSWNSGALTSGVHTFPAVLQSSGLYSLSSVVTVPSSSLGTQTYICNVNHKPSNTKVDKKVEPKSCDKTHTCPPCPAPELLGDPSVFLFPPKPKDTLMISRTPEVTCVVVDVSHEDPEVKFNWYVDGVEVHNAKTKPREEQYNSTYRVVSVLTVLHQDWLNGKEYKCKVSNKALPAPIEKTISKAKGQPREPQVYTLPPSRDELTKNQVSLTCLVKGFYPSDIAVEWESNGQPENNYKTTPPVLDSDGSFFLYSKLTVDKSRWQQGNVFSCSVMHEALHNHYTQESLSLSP
light chain: B7 light chain
notes: Named on the sheet only by its alteration; also called B3 variant of GpH7-B3/GpL16-k0 with G237D (no P238D)

binding result [7]: binds
B9: G237E (antibody, human IgG1, kappa)
heavy chain: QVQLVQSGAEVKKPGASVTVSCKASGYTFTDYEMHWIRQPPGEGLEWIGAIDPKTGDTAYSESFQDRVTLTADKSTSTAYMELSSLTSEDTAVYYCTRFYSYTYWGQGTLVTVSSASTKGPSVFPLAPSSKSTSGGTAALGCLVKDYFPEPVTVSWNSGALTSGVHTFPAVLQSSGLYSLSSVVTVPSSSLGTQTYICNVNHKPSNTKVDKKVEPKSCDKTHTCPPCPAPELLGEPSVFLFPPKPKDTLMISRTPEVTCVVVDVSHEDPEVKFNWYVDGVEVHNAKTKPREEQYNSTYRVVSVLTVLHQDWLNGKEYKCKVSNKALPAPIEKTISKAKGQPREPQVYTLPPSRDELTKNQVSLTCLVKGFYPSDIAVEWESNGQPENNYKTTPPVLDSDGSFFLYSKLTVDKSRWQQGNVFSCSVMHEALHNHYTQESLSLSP
light chain: B7 light chain
notes: Named on the sheet only by its alteration; also called B3 variant of GpH7-B3/GpL16-k0 with G237E (no P238D)

binding result [7]: binds
B10: G237L (antibody, human IgG1, kappa)
heavy chain: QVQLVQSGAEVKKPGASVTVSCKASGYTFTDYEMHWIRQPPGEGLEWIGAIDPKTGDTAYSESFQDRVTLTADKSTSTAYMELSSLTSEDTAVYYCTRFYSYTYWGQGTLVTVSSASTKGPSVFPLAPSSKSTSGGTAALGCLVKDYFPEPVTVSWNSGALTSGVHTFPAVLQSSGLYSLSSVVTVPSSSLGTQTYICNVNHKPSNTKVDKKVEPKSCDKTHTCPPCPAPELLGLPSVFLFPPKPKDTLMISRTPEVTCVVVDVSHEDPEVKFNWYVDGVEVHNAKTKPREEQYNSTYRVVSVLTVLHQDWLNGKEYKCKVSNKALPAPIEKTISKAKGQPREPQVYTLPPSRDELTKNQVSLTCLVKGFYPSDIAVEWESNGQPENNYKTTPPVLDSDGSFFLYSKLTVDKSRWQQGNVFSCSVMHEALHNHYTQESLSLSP
light chain: B7 light chain
notes: Named on the sheet only by its alteration; also called B3 variant of GpH7-B3/GpL16-k0 with G237L (no P238D)

binding result [7]: binds
B11: G237Y (antibody, human IgG1, kappa)
heavy chain: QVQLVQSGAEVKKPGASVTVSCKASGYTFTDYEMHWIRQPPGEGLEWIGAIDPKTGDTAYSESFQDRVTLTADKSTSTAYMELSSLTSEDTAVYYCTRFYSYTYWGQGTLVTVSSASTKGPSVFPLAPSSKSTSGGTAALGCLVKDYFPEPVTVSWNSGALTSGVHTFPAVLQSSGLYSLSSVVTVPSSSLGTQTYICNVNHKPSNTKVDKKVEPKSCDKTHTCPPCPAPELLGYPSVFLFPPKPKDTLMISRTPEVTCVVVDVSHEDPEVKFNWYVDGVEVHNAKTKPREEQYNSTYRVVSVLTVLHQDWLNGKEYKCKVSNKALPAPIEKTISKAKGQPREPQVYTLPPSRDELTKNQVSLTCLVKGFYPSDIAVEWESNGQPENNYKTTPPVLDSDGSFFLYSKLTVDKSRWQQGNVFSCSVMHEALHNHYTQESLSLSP
light chain: B7 light chain
notes: Named on the sheet only by its alteration; also called B3 variant of GpH7-B3/GpL16-k0 with G237Y (no P238D)

binding result [7]: binds
B12: L234W (antibody, human IgG1, kappa)
heavy chain: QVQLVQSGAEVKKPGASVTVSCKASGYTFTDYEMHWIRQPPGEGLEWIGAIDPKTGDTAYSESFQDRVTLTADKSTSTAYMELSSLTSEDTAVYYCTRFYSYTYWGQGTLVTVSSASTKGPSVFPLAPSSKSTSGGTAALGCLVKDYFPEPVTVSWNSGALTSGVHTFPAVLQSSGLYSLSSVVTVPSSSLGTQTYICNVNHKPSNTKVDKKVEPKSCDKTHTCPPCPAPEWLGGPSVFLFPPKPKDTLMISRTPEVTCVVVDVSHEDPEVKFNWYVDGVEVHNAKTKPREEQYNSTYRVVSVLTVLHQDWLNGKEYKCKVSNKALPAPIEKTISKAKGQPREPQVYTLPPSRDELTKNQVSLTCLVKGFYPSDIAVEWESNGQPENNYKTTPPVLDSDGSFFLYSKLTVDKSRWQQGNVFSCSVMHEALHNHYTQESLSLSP
light chain: B7 light chain
notes: Named on the sheet only by its alteration; also called B3 variant of GpH7-B3/GpL16-k0 with L234W (no P238D)

binding result [7]: binds
B13: G237M (antibody, human IgG1, kappa)
heavy chain: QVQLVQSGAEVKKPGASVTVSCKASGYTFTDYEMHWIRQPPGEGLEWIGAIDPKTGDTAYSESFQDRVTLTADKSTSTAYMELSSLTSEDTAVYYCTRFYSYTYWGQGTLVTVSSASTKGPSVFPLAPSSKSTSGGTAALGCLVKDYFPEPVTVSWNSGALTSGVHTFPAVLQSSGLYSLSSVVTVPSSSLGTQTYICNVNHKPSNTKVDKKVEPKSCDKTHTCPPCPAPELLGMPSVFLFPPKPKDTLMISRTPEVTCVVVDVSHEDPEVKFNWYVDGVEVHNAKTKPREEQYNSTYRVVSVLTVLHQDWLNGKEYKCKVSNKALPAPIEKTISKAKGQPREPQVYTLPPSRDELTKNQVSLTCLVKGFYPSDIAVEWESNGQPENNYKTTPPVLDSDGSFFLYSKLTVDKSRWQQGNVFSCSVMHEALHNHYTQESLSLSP
light chain: B7 light chain
notes: Named on the sheet only by its alteration; also called B3 variant of GpH7-B3/GpL16-k0 with G237M (no P238D)
